Patent EP4786492A1

B1: mab009 scFv-hFc (Fc fusion, part only; not given: Linker and human IgG1 Fc, not shown: a dimerising Fc or GST)
chain, part: DIVMTQSPATLSVTPGDRVSLSCRASQTISDYLHWYQQRSHESPRLLIKYASQSISGIPSRFSGSGSGSDFTLSINSVEPEDVGVYYCQNGHSFPLTFGAGTKLELKEVQLQQSGTVLARPGASVKMSCKTSGYTFTSYWMHWVKQSPGQGLEWIGTIYPGNSDTRYNQKFKDKAYVTAVTSASTAYMELSSLTNEESAVYYCTRSYDYGDLDYWGQGTTLTVSS
B2: mab014 scFv-hFc (Fc fusion, part only; not given: Linker and human IgG1 Fc, not shown: a dimerising Fc or GST)
chain, part: DIQMTQSSSSFSVSLGDRVTITCKASEDIYNRLAWYQQKPGNTPRLLISGATSLETGVPSRFSGSGSGKDFTLSITSLQTEDVATYYCQQYWSLPWTFGGGTKLEIKEVQLHQSGPELVKPGTSVKISCKASGYTFTDYYMNWVKQSHGKSLEWIGDINPNHGDTGYNQKFTGKATLTVDKSSSTAYMELRSLTSEDSAVYYCARNFFYYGTTYGWYFDVWGTGTTVTVSS
B3: mab008 scFv-hFc (Fc fusion, part only; not given: linker and human IgG1 Fc, not shown: a dimerising Fc or GST)
chain, part: DIVMTQSQKFMSTSVGDRVSITCKASQNVGTAVAWYQQKPGQSPKLLIFSASIRYTGVPDRFTGSGSGTDFTLTISNMQSEDLADYFCQQYSSSPYTFGGGTKLEIKEVQLQQSGPVLVKPGASVKMSCKASGYTFTDYYMNWVKRSHGKSLEWIGIINPYNGGTSYNQKFRGKATLTVDKSSNTAYMELNSLTSEDSAVYYCSRYDYDYDVEGAMDYWGQGTSVTVSS
B4: mab015 scFv-hFc (Fc fusion, part only; not given: linker and human IgG1 Fc, not shown: a dimerising Fc or GST)
chain, part: NIVMTQSPKSMSMSVGERVTLSCKASENVGTYVSWFQQKPEQSPKLLIYGASNRYTGVPDRFTGSGSATDFTLTISSVQAEDLADYHCGQFYSFPCTFGGGTKLEIKEVKLEESGGGLVQPGGSMKLSCVASGITFSNFWMNWVRQSPEKGLEWVAQIRLKSDDYATHYAESVKGRFTISRDDSKGSVYLQMNNLRTEDTGIHYCTTGYYFDYWGQGTTLTVSS

Target: DLL3 endogenously expressed on NCI-H82 cells (UniProt Q9NYJ7)
Sequence (Q9NYJ7 27-618): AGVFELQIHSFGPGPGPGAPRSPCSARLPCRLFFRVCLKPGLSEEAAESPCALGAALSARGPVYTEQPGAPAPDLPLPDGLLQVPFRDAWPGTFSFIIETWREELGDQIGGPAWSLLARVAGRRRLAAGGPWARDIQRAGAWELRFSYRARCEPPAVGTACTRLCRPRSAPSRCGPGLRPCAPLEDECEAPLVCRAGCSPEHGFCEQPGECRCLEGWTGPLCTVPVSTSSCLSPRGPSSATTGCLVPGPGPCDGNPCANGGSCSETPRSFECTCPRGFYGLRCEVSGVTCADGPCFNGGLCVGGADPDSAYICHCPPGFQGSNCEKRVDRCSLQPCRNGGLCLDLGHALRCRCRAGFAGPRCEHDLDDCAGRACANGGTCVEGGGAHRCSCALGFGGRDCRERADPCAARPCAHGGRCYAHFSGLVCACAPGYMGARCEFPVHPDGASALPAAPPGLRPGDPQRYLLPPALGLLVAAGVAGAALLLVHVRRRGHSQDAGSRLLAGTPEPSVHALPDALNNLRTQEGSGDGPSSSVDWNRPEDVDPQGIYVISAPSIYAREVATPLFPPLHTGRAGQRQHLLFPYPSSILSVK
Assay: FACS on NCI-H82 cells; antibody 0.00128 nM

First: B1
Second: B2
The MFI of the first is higher: 123 for the first, 112 for the second.

B3 and B4 are the same in MFI: 113 for the first, 113 for the second.

Target: DLL3 endogenously expressed on NCI-H82 cells (UniProt Q9NYJ7)
Assay: FACS on NCI-H82 cells; antibody 0.8 nM

Going from B1 to B2, the MFI falls from 674 to 667.

Going from B3 to B4, the MFI rises from 176 to 1120.

Target: DLL3 endogenously expressed on NCI-H82 cells (UniProt Q9NYJ7)
Assay: FACS on NCI-H82 cells; antibody 20 nM

Going from B1 to B2, the MFI falls from 833 to 829.

Going from B3 to B4, the MFI rises from 438 to 1360.

Target: DLL3 endogenously expressed on NCI-H82 cells (UniProt Q9NYJ7)
Assay: FACS on NCI-H82 cells; antibody 0.0064 nM

Compared with B1, B2 is lower in MFI: 175 for the first, 134 for the second.

Going from B3 to B4, the MFI rises from 94 to 135.

Target: DLL3 endogenously expressed on NCI-H82 cells (UniProt Q9NYJ7)
Assay: FACS on NCI-H82 cells; antibody 0.032 nM

Compared with B1, B2 is lower in MFI: 346 for the first, 213 for the second.

Compared with B3, B4 is higher in MFI: 95 for the first, 218 for the second.

Target: human DLL3 protein (extracellular segment, His tag) (human) (UniProt Q9NYJ7)
Sequence (Q9NYJ7 27-492): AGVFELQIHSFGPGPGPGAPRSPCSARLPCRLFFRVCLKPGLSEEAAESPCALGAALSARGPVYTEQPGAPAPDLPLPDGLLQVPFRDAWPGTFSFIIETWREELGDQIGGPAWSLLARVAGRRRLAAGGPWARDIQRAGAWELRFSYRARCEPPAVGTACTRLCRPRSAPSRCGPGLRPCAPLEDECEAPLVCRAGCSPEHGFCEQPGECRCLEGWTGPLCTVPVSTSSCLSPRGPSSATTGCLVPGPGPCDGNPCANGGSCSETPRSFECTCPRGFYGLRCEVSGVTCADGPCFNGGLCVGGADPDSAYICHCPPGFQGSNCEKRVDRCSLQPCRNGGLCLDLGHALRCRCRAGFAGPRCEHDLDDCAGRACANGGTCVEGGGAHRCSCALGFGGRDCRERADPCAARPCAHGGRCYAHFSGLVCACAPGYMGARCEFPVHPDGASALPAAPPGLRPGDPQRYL
Assay: SPR (Biacore 8K), antibody captured on Protein A chip, DLL3 antigen in solution, 1:1 Langmuir fit

First: B1
Second: B2
The Kd of the first is 3.9-fold higher: 0.216 nM for the first, 0.0547 nM for the second.

First: B3
Second: B4
The Kd of the first is 640-fold higher: 0.381 nM for the first, 0.000597 nM for the second.

Compared with B1, B2 is 28-fold lower in koff: 0.00132 s⁻¹ for the first, 4.64e-05 s⁻¹ for the second.

Going from B3 to B4, the koff falls from 0.00034 s⁻¹ to 1.46e-06 s⁻¹ (230-fold).

Compared with B1, B2 is 7.2-fold lower in kon: 6.13e+06 M⁻¹ s⁻¹ for the first, 848000 M⁻¹ s⁻¹ for the second.

First: B3
Second: B4
The kon of the first is 2.7-fold lower: 891000 M⁻¹ s⁻¹ for the first, 2.45e+06 M⁻¹ s⁻¹ for the second.

Target: DLL3 endogenously expressed on NCI-H82 cells (UniProt Q9NYJ7)
Assay: FACS on NCI-H82 cells; antibody 4 nM

Compared with B1, B2 is lower in MFI: 737 for the first, 702 for the second.

Compared with B3, B4 is higher in MFI: 373 for the first, 1190 for the second.

Target: DLL3 endogenously expressed on NCI-H82 cells (UniProt Q9NYJ7)
Assay: FACS on NCI-H82 cells; antibody 0.16 nM

Going from B1 to B2, the MFI falls from 673 to 429.

Going from B3 to B4, the MFI rises from 107 to 588.

Target: DLL3 endogenously expressed on NCI-H82 cells (UniProt Q9NYJ7)
Assay: FACS on NCI-H82 cells; antibody 100 nM

Going from B1 to B2, the MFI rises from 968 to 1190.

Going from B3 to B4, the MFI rises from 537 to 1680.
